Some results are limits rather than exact numbers.

Assay [1] deals with T1, human Trophoblast cell surface antigen 2 (TROP2) (human, UniProt P09758 27-274, limits assumed).
T1 construct: Analyte in the SPR experiments and immunogen; also called human TROP2
T1 sequence: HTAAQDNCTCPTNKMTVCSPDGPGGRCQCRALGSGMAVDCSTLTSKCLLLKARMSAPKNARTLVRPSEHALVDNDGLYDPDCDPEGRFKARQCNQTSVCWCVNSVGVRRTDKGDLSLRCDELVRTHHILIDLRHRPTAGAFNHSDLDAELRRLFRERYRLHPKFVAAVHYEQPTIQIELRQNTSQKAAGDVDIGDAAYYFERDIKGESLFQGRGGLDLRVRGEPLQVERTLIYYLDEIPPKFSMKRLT
The experiment in a line: SPR affinity ranking, human TROP2.

Assay [2] addresses T1, human Trophoblast cell surface antigen …. Put plainly: SPR, TROP2 as analyte.
In assay [3] the target is T2, TROP2 expressed on human cancer cell lines (human, UniProt P09758 27-323).
T2 sequence: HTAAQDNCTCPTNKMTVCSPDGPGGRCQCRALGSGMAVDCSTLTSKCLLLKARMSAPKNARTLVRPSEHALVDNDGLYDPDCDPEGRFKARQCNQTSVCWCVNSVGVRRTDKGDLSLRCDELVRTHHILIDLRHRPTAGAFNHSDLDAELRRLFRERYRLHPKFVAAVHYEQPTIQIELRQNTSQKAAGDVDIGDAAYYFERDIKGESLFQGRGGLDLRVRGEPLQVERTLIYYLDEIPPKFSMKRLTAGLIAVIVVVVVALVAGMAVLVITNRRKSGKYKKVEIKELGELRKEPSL
The experiment in a line: cell-based or functional assay.

The target of assay [4] is T2, TROP2 expressed on human cancer cell …. The experiment in a line: cell-based or functional assay. The source holds these as a separate data set.
Assay [5] shares this target. The experiment in a line: flow cytometry of SKBR3 cells after overnight incubation with the antibody pre-mixed with pHAb-labelled secondary antibody (internalization assay); x axis pHAb-A, y axis Count. As for the experimental part: FACS experiments were performed to verify that antibodies 1B3, 15D9, 15A10, 17B6, and 17D1 were internalized by SKBR3 cells. SKBR3 is a TROP2-expressing human breast carcinoma cell line. Briefly, 1.2×10⁵ SKBR3 cells were seeded into each 12-well plates and cultured overnight. 300 μL of 20 nM control antibody, 1B3, 15D9, 15A10, 17B6, or 17D1 (in DMEM-10) were mixed with 300 μL 60 nM pHAb-labelled secondary antibody for 15 minutes at room temperature in the dark. The labeled antibodies mixtures were added to the SKBR3 cells and incubated overnight. Following overnight incubation, the SKBR3 cells were trypsinized, washed twice with 1% BSA/PBS, and analyzed via flow cytometry.

Assay [6] concerns the target human Trophoblast cell surface antigen 2 (TROP2) (human) (UniProt P09758). The experiment in a line: SPR, TROP2 as analyte.

B1: HC5/LC1 (antibody, human IgG1, kappa, V domains shown)
VH: EVQLVQSGAEVKKPGESLKISCKGSGYTFTDYSINWVRQMPGKGLEWMGVISTYYGDASYNQKFKGQVTISADKSISTAYLQWSSLKASDTAMYYCARYGDGYNQFDYWGQGTLVTVSS
VL: DIVMTQSPDSLAVSLGERATINCRVSESVDSYGNNFMHWYQQKPGQPPKLLIYRASNLESGVPDRFSGSGSGTDFTLTISSLQAEDVAVYYCQQSYEDPYTFGQGTKLEIKR
notes: Humanized anti-TROP2 antibody
Consider B1, for which, in assay [1], the Kd is 0.147 nM, the koff was found to be 0.000235 s⁻¹ and the kon was found to be 1.6e+06 M⁻¹ s⁻¹.

B2: HC5/LC4 (antibody, human IgG1, kappa, V domains shown)
VH: EVQLVQSGAEVKKPGESLKISCKGSGYTFTDYSINWVRQMPGKGLEWMGVISTYYGDASYNQKFKGQVTISADKSISTAYLQWSSLKASDTAMYYCARYGDGYNQFDYWGQGTLVTVSS
VL: EIVLTQSPATLSLSPGERATLSCRVSESVDSYGNNFMHWYQQKPGQAPRLLIYRASNLESGIPARFSGSGSGTDFTLTISSLEPEDFAVYYCQQSYEDPYTFGGGTKVEIKR
notes: Humanized anti-TROP2 antibody
Consider B2, for which, in assay [1], the Kd turned out to be 0.22 nM, the off-rate constant (koff) is 0.000299 s⁻¹ and the kon came to 1.36e+06 M⁻¹ s⁻¹.

B3: HC1/LC5 (antibody, human IgG1, kappa, V domains shown)
VH: QVQLVQSGAEVKKPGASVKVSCKASGYTFTDYSINWVRQAPGQGLEWMGVISTYYGDASYNQKFKGRVTMTTDTSTSTAYMELRSLRSDDTAVYYCARYGDGYNQFDYWGQGTMVTVSS
VL: DIQMTQSPSSLSASVGDRVTITCRVSESVDSYGNNFMHWYQQKPGKAPKLLIYRASNLESGVPSRFSGSGSGTDFTFTISSLQPEDIATYYCQQSYEDPYTFGGGTKLEIKR
notes: Humanized anti-TROP2 antibody; also called DP002-HC1LC5
For B3, in assay [2], the Kd turned out to be 0.0577 nM, the koff came to 0.000104 s⁻¹ and the kon came to 1.81e+06 M⁻¹ s⁻¹. In assay [1], this molecule returned a Kd of 0.107 nM, an off-rate constant (koff) of 0.000149 s⁻¹ and a kon of 1.39e+06 M⁻¹ s⁻¹.

B4: HC4/LC5 (antibody, human IgG1, kappa, V domains shown)
VH: QVQLVQSGAEVKKPGSSVKVSCKASGYTFTDYSINWVRQAPGQGLEWMGVISTYYGDASYNQKFKGRVTITADESTSTAYMELSSLRSEDTAVYYCARYGDGYNQFDYWGQGTLVTVSS
VL: DIQMTQSPSSLSASVGDRVTITCRVSESVDSYGNNFMHWYQQKPGKAPKLLIYRASNLESGVPSRFSGSGSGTDFTFTISSLQPEDIATYYCQQSYEDPYTFGGGTKLEIKR
notes: Humanized anti-TROP2 antibody; also called DP002-HC4LC5; DP002HC4LC5
B4: in assay [2], the Kd was found to be 0.0184 nM, the dissociation rate constant (koff) was found to be 4.05e-05 s⁻¹ and the kon worked out at 2.2e+06 M⁻¹ s⁻¹. For the same molecule, in assay [3], the “IC50 (nM), in vitro cytotoxicity, BxPC-3 cells” value is > 100 nM; the “IC50 (nM), in vitro cytotoxicity, HCC1954 cells” value was > 100 nM; the “IC50 (nM), in vitro cytotoxicity, NCI-N87 cells” value is > 100 nM. Moreover, in assay [1], binding was characterised by a dissociation constant (Kd) of 0.0801 nM, the koff was 0.000138 s⁻¹ and the kon amounted to 1.72e+06 M⁻¹ s⁻¹.

B5: HC3/LC4 (antibody, human IgG1, kappa, V domains shown)
VH: QVQLVQSGAEVKKPGASVKVSCKASGYTFTDYSINWVRQAPGQRLEWMGVISTYYGDASYNQKFKGRVTITRDTSASTAYMELSSLRSEDTAVYYCARYGDGYNQFDYWGQGTLVTVSS
VL: EIVLTQSPATLSLSPGERATLSCRVSESVDSYGNNFMHWYQQKPGQAPRLLIYRASNLESGIPARFSGSGSGTDFTLTISSLEPEDFAVYYCQQSYEDPYTFGGGTKVEIKR
notes: Humanized anti-TROP2 antibody
For the molecule B5, in assay [1], the Kd amounted to 0.14 nM, the koff amounted to 0.000192 s⁻¹ and the kon is 1.37e+06 M⁻¹ s⁻¹.

B6: HC4/LC4 (antibody, human IgG1, kappa, V domains shown)
VH: QVQLVQSGAEVKKPGSSVKVSCKASGYTFTDYSINWVRQAPGQGLEWMGVISTYYGDASYNQKFKGRVTITADESTSTAYMELSSLRSEDTAVYYCARYGDGYNQFDYWGQGTLVTVSS
VL: EIVLTQSPATLSLSPGERATLSCRVSESVDSYGNNFMHWYQQKPGQAPRLLIYRASNLESGIPARFSGSGSGTDFTLTISSLEPEDFAVYYCQQSYEDPYTFGGGTKVEIKR
notes: Humanized anti-TROP2 antibody
In assay [1], B6 returned a Kd of 0.052 nM, a koff of 8.88e-05 s⁻¹ and a kon of 1.71e+06 M⁻¹ s⁻¹.

B7: HC1/LC1 (antibody, human IgG1, kappa, V domains shown)
VH: QVQLVQSGAEVKKPGASVKVSCKASGYTFTDYSINWVRQAPGQGLEWMGVISTYYGDASYNQKFKGRVTMTTDTSTSTAYMELRSLRSDDTAVYYCARYGDGYNQFDYWGQGTMVTVSS
VL: DIVMTQSPDSLAVSLGERATINCRVSESVDSYGNNFMHWYQQKPGQPPKLLIYRASNLESGVPDRFSGSGSGTDFTLTISSLQAEDVAVYYCQQSYEDPYTFGQGTKLEIKR
notes: Humanized anti-TROP2 antibody; also called DP002-HC1LC1
In assay [2], B7 had a Kd of 0.0662 nM, an off-rate constant (koff) of 0.00013 s⁻¹ and a kon of 1.97e+06 M⁻¹ s⁻¹. In assay [4], the “IC50 (nM), in vitro cytotoxicity, HCC38 cells” value was > 100 nM and the “IC50 (nM), in vitro cytotoxicity, MDA-MB-468 cells” value is > 100 nM. Also, in assay [1], the Kd turned out to be 0.0645 nM, the off-rate constant (koff) amounted to 0.000105 s⁻¹ and the kon stood at 1.63e+06 M⁻¹ s⁻¹.

B8: anti-TROP2 antibody 1B3 (antibody, V domains shown)
VH: QVQLQQSGAELVRPGVSVKISCKGSGYTFTDYSINWVKQSHAKSLEWIGVISTYYGDASYNQKFKGKATMTVDKSSSTAYMELARLTSEDSAIYYCARYGDGYNQFDYWGQGTTLTVSS
VL: DIVLTQSPASLAVSLGQRATISCRVSESVDSYGNNFMHWYQQKPGQPPKLLIYRASNLESGVPARFSGSGSGTDFTLTINPMEADDVATYYCQQSYEDPYTFGGGTKLEIK
notes: Mouse anti-human TROP2 hybridoma antibody
B8: the binding result in assay [5] is given as “binds”.

B9: anti-TROP2 antibody 17B6 (antibody, V domains shown)
VH: QVQLQQSGAELVRPGVSVKISCKGSGYTFTDYGMNWVKQSHAKSLEWIGVISTFYGDANYNQKFKGKATMTVDKSSSTAYMELARLTSEDSAIYYCARRGNYDSMDYWGQGTSVTVSS
VL: DIVLTQSPVFLAVSLGQRATISCRASESVDSYGNSFMHWYQQKPGQPPKLLIYRASNLESGIPARFSGSGSRTDFTLTINPVEADDVETYYCQQSYEDPPTFGGGTKLEIE
notes: as for B8
With B9, in assay [5], the binding result is reported as “binds”.

B10: anti-TROP2 antibody 15A10 (antibody, V domains shown)
VH: EVQLEQSGPGLVQPSQSLSITCTVSGFSLTRYGVHWVRQSPGRSLEWLGVIWSGGNTDYNAAFISRLTITKDNSKSQVFFKMNSLQPNDTGVYYCAREDRYVGEFAYWGQGTLVTVSA
VL: DIVLTQSTASLAVSLGQRATISCRASESVDSYGNSFIHWYQQKPGQPPKLLIYRASNLESGIPARFSGSGSRTDFTLTINPVEADDVATYYCQQSNEDPRTFGGGTKLEIK
notes: as for B8
B10: in assay [5], the binding result is “binds”.

B11: anti-TROP2 antibody 15D9 (antibody, V domains shown)
VH: QVQLQQSGAELVRPGVSVKISCKGSGYTFTDYSIHWVKQSHAKSLEWIGVISSYYGDATYNQKFKGKATMTVDKSSSTAYMELARLTSEDSAIYYCALLGAYNYFDYWGQGTTLTVSS
VL: DIVLTQSPASLAVSLGQRATISCRASESVDSYGNSFMHWYQQKPGQPPKLLVYRASNLESGIPARFSGSGSRTDFTLTINPVEADDVATYYCQQSYEDPPTFGGGTKLEIK
notes: as for B8
Regarding B11, in assay [5], the binding result was “binds”.

B12: anti-TROP2 antibody 17D1 (antibody, V domains shown)
VH: QVQLQQSGAELVRPGVSVKISCKGSGYTFTDYSIHWVKQSHAKSLEWIGLISTYYGDATYTQKFKGKATMTVDKSSSTAYMELARLTSEDSAIYYCALLGAYNYFDYWGQGTTLTVSS
VL: DIVLTQSPASLAVSLGQRATISCRASESVDSYGNSFMHWYQQKPGQPPKLLVYRASNLESGIPARFSGSGSRTDFTLTINPVEADDIATYYCQQSYEDPPTFGGGTKLEIK
notes: as for B8
In the case of B12, the binding result in assay [5] was “binds”.

B13: biosimilar of the anti-TROP2 antibody sacituzumab (antibody, INN chains, looked up, V domains shown)
VH: QVQLQQSGSELKKPGASVKVSCKASGYTFTNYGMNWVKQAPGQGLKWMGWINTYTGEPTYTDDFKGRFAFSLDTSVSTAYLQISSLKADDTAVYFCARGGFGSSYWYFDVWGQGSLVTVSS
VL: DIQLTQSPSSLSASVGDRVSITCKASQDVSIAVAWYQQKPGKAPKLLIYSASYRYTGVPDRFSGSGSGTDFTLTISSLQPEDFAVYYCQQHYITPLTFGAGTKVEIKR
modifications: biosimilar
Consider B13, for which, in assay [6], the Kd stood at 0.4 nM, the koff was determined as 0.000204 s⁻¹ and the kon stood at 511000 M⁻¹ s⁻¹.
